The source of these data is paper PMC3156789 (Biochemistry, 2011).

One data set addresses c-Src. The following applies: read-out: dissociation constant (KD) of the CSK/c-Src complex; surface plasmon resonance; ref [9] Levinson et al.; cited from earlier work. (In general: In SPR one partner is held on a chip, and binding of the other changes the refractive index at the surface.)
The subject of a further data set is CHK. The class given is biochemical. The following applies: in vitro.
For data set [1] the following is noted: aqueous solution; size exclusion chromatography and sedimentation velocity; ref [24]; cited from earlier work. For orientation: In gel filtration, larger molecules generally elute earlier.

B1: CSK: C-terminal Src kinase (protein, UniProt P41240 2-450, looked up)
Tyrosine-protein kinase CSK: SAIQAAWPSGTECIAKYNFHGTAEQDLPFCKGDVLTIVAVTKDPNWYKAKNKVGREGIIPANYVQKREGVKAGTKLSLMPWFHGKITREQAERLLYPPETGLFLVRESTNYPGDYTLCVSCDGKVEHYRIMYHASKLSIDEEVYFENLMQLVEHYTSDADGLCTRLIKPKVMEGTVAAQDEFYRSGWALNMKELKLLQTIGKGEFGDVMLGDYRGNKVAVKCIKNDATAQAFLAEASVMTQLRHSNLVQLLGVIVEEKGGLYIVTEYMAKGSLVDYLRSRGRSVLGGDCLLKFSLDVCEAMEYLEGNNFVHRDLAARNVLVSEDNVAKVSDFGLTKEASSTQDTGKLPVKWTAPEALREKKFSTKSDVWSFGILLWEIYSFGRVPYPRIPLKDVVPRVEKGYKMDAPDGCPPAVYEVMKNCWHLDAAMRPSFLQLREQLEHIKTHELHL
Take B1: at c-Src, the Kd was 4 to 64 µM.

B2: 14-3-3β: recombinant 14-3-3β (protein, UniProt P31946 1-246, looked up)
14-3-3 protein beta/alpha: MTMDKSELVQKAKLAEQAERYDDMAAAMKAVTEQGHELSNEERNLLSVAYKNVVGARRSSWRVISSIEQKTERNEKKQQMGKEYREKIEAELQDICNDVLELLDKYLIPNATQPESKVFYLKMKGDYFRYLSEVASGDNKQTTVSNSQQAYQEAFEISKKEMQPTHPIRLGLALNFSVFYYEILNSPEKACSLAKTAFDEAIAELDTLNEESYKDSTLIMQLLRDNLTLWTSENQGDEGDAGEGEN
As for B2, the “level of CHK phosphorylation” value in the data set with CHK (purified recombinant proteins) is given as “negligible level”. Moreover, in the data set with CHK (purified recombinant proteins (SFig. 4A)), the “direct phosphorylation by CHK” value is on record as “CHK could directly phosphorylate all three protein substrates in vitro”.

B3: CHK-His6: GSGS linker and a polyhistidine tag attached to the C-terminus of the rat CHK sequence (protein)
chain: MPTQRWAPGTQCMTKCENSRPKPGELAFRKGDMVTILEACEDKSWYRAKHHSSGQEGLLAAAALRQREALSTDPKLSLMPWFHGKISGQEAIQQLQPPEDGLFLVRESARHPGDYVLCVSFGRDVIHYRVLHRDGHLTIDEAVCFCNLMDMVEHYTRDKGAICTKLVKPKRKQGAKSAEEELAKAGWLLDLQHLTLGAQIGEGEFGAVLQGEYLGQKVAVKNIKCDVTAQAFLDETAVMTKLQHRNLVRLLGVILHHGLYIVMEHVSKGNLVNFLRTRGRALVSTSQLLQFALHVAEGMEYLESKKLVHRDLAARNILVSEDLVAKVSDFGLAKAELRKGLDSSRLPVKWTAPEALKNGRFSSKSDVWSFGVLLWEVFSYGRAPYPKMSLKEVSEAVEKGYRMEPPDSCPGPVHTLMGSCWEAEPSRRPPFRKIVEKLGRELRSVGVAAPAGGQEAEGSAPTRSQDP
modifications: left off: … (GSGS linker and polyhistidine tag), C-terminal, kept
For B3, in data set [1], the oligomeric state result is “monomeric in aqueous solution”.
